{
  "source": "patent US20240299464A1",
  "about": "“BOTANICAL COMPOUNDS, METHODS, AND PROCEDURES FOR MEDICINAL TREATMENT RELATED TO IMMUNOINFLAMMATION, NEUROINFLAMMATION, DEPRESSION, MEMORY, FOCUS, AND NERVE DEGENERATION” (priority 2023, published 2024)",
  "key": {"[1]": {"test_system": "mice", "experiment": "Forced swimming test (FST), anti-anxiety and stress effects", "type": "in vivo", "experimental": "The anti-anxiety and stress effects of the Ziptamin product were investigated in mice using the forced swim test as reported in Porsolt, et al. (5). Healthy female mice, after acclimatization, were randomly divided into 4 groups, each group consisting of 6 mice, specifically: • Group 1 (Disease control): Mice were administered distilled water; • Group 2 (Control): Mice were administered fluoxetine at a dose of 6.5 mg/kg; • Group 3 (Test sample): Mice were administered Ziptamin at a dose of 25 ml/kg, divided into 2 doses/day 4 hours apart; • Group 4 (Test sample): Mice were administered Ziptamin at a dose of 50 ml/kg, divided into 2 doses/day 4 hours apart.\nMice were administered distilled water or fluoxetine at a volume of 10 ml/kg once a day or Ziptamin at doses of 25 ml/kg and 50 ml/kg for 7 consecutive days, divided into 2 doses/day, with a 4-hour interval between doses. On day 7, 60 minutes after administering distilled water, fluoxetine, or Ziptamin, mice were placed in a cylindrical glass tube (diameter 20 cm, height 50 cm) containing water at a temperature of 23-25° C. and a depth of 20 cm for 6 minutes. Initially, the mice struggled to escape the water, but then gradually adapted and performed only the necessary movements to keep their heads above water (immobility state). Filming lasted for 6 minutes, including 1 minute for the mice to stabilize and adapt, and the remaining 5 minutes to record the movements and behavior of the mice in the water, including swimming time (mice moving their limbs in the water as if rowing in the center of the cylinder), struggling (front limbs moving quickly and strongly in or above the water, with a tendency to swim and hit the front limbs against the walls of the cylinder), and immobility (ceasing to struggle, only performing necessary movements to keep the head afloat) (FIG. 1). The test sample reduced anxiety and stress, decreasing immobility time and increasing swimming and struggling time in the test mice. After 6 minutes, the mice were removed from the water and dried to prevent hypothermia. Results are presented as mean values±SEM (standard error of the mean). Differences between groups were analyzed using the Kruskal-Wallis test and Mann-Whitney test with SPSS 26.0 software. A statistical significance is considered when the p-value is <0.05."}, "[2]": {"test_system": "mice with immunosuppression induced by cyclophosphamide", "experiment": "Immune stimulatory effects on mice with immunosuppression induced by cyclophosphamide", "type": "in vivo", "conditions": "for Body weight: CYP 150 mg/kg i.p. day 1", "experimental": "The adult human dosage of Ziptamin is 0.5-1 bottle/day×250 ml/bottle A normal adult weighs about 60 kg→Mouse dose of Ziptamin: Dmouse=(0.5*250*11.76)/60=25 ml/kg and Dmouse=(1*250*11.76)/60=50 ml/kg. The dose conversion factor from adults to mice is 11.76 according to the Guidelines for preclinical and clinical testing of traditional medicine, herbal medicine issued by the Department of Science, Technology and Training-Ministry of Health under Decision No. 141/QD-K2DT dated 27 Oct. 2015.\nHealthy male mice, after stable housing, were randomly divided into 5 groups, each with 8 mice: • Group 1 (Physiological): Mice were given distilled water; • Group 2 (Disease control): Mice were given distilled water; • Group 3 (Control): Mice were injected […] with filgrastim at a dose of 50 μg/kg; • Group 4 (Test group): Mice were given Ziptamin at a dose of 25 ml/kg, divided into 2 doses/day 4 hours apart; • Group 5 (Test group): Mice were given Ziptamin at a dose of 50 ml/kg, divided into 2 doses/day 4 hours apart; • Group 1 (physiological) were injected intraperitoneally with 0.9% NaCl, volume 10 ml/kg. Mice from groups 2 to 5 were injected intraperitoneally with CYP (dissolved in 0.9% NaCl) at a single dose of 150 mg/kg on day 1, injection volume 10 ml/kg. Mice in group 3 were subcutaneously injected with filgrastim (dissolved in 5% glucose), dose 50 μg/kg, once a day, from day 2 to day 4, the first dose 24 hours after CYP injection. Mice in groups 4 and 5 were given Ziptamin at doses of 25 ml/kg and 50 ml/kg from day 1 to day 4, divided into 2 doses/day, 4 hours apart between doses. Mice in the test groups were recorded for weight daily before administering distilled water, test sample, or medication. On day 4, one hour after the filgrastim injection or Ziptamin administration, mice were euthanized with CO2 gas, blood was collected from the heart to determine the leukocyte formula at Medlatec clinic; spleen and thymus were collected, rinsed with cold 0.9% NaCl, dried, weighed, and the relative organ mass was determined using the formula:\n[formula] • Where: • Porgan: organ weight (g) • Pbody: body weight (g)\nResults are presented as mean±SEM (standard error of mean). Differences between groups were analyzed using Kruskal-Wallis and Mann-Whitney tests with SPSS 26.0 software. A difference was considered statistically significant when the p-value <0.05."}, "[3]": {"conditions": "fluoxetine 6.5 mg/kg once a day, 7 days, female mice, n = 6, 5 minutes recorded"}, "[4]": {"conditions": "filgrastim 50 μg/kg day 2 to day 4, CYP 150 mg/kg, blood day 4, n = 8"}, "[5]": {"conditions": "filgrastim 50 μg/kg day 2 to day 4, CYP 150 mg/kg, day 4, n = 8"}},
  "note": "Marks after values point to notes of the source that are not given here.",
  "data": [
    {"molecule": "CNCCC(Oc1ccc(C(F)(F)F)cc1)c1ccccc1", "note": "(stereo not drawn) [Fluoxetin, fluoxetine]", "values": [
      {"measurement": "Time Immobility", "setting": "[1]; [3]", "value": "53.17 ± 29.27", "unit": "s"},
      {"measurement": "Time Struggling", "setting": "[1]; [3]", "value": "15.33 ± 8.52", "unit": "s"},
      {"measurement": "Time Swimming", "setting": "[1]; [3]", "value": "231.50 ± 28.25", "unit": "s"},
      {"measurement": "decrease in immobility time compared to the disease control group", "setting": "[1]; fluoxetine 6.5 mg/kg, p<0.01", "value": 68.66, "unit": "%"},
      {"measurement": "increase in swimming time compared to the disease control group", "setting": "[1]; fluoxetine 6.5 mg/kg, p<0.01", "value": 90.27, "unit": "%"},
      {"measurement": "paddling time relative to the disease control group", "setting": "[1]; fluoxetine 6.5 mg/kg, p>0.05", "value": 1.77, "unit": "times"}
    ]},
    {"molecule": "filgrastim (protein, UniProt P09919 31-207, looked up, filgrastim) Granulocyte …: TPLGPASSLPQSFLLKCLEQVRKIQGDGAALQEKLVSECATYKLCHPEELVLLGHSLGIPWAPLSSCPSQALQLAGCLSQLHSGLFLYQGLLQALEGISPELGPTLDTLQLDVADFATTIWQQMEELGMAPALQPTQGAMPAFASAFQRRAGGVLVASHLQSFLEVSYRVLRHLAQP", "values": [
      {"measurement": "Body weight", "setting": "[2]; Day 1, filgrastim 50 μg/kg group, n = 8", "value": "19.34 ± 0.97", "unit": "g"},
      {"measurement": "Body weight", "setting": "[2]; Day 2, filgrastim 50 μg/kg once a day from day 2, n = 8", "value": "18.19 ± 1.21", "unit": "g"},
      {"measurement": "Body weight", "setting": "[2]; Day 3, filgrastim 50 μg/kg once a day from day 2, n = 8", "value": "17.64 ± 1.41", "unit": "g"},
      {"measurement": "Body weight", "setting": "[2]; Day 4, filgrastim 50 μg/kg once a day from day 2, n = 8", "value": "17.08 ± 1.52", "unit": "g"},
      {"measurement": "Ratio WBCC Lympho", "setting": "[2]; [4]", "value": "87.26 ± 4.57", "unit": "%"},
      {"measurement": "Ratio WBCC Mono", "setting": "[2]; [4]", "value": "7.00 ± 1.91", "unit": "%"},
      {"measurement": "Ratio WBCC Neutral", "setting": "[2]; [4]", "value": "5.74 ± 2.84", "unit": "%"},
      {"measurement": "Volume WBC Lympho", "setting": "[2]; [4]", "value": "2.26 ± 0.60**^# 10^9/L"},
      {"measurement": "Volume WBC Mono", "setting": "[2]; [4]", "value": "0.15 ± 0.10**^# 10^9/L"},
      {"measurement": "Volume WBC Neutral", "setting": "[2]; [4]", "value": "0.25 ± 0.13** 10^9/L"},
      {"measurement": "Volume WBC Total WBC", "setting": "[2]; [4]", "value": "2.66 ± 0.73**^# 10^9/L"},
      {"measurement": "Relative weight of the spleen", "setting": "[2]; [5]", "value": "0.16 ± 0.05", "unit": "% g/g"},
      {"measurement": "Relative weight of the thymus", "setting": "[2]; [5]", "value": "0.06 ± 0.03", "unit": "% g/g"},
      {"measurement": "total white blood cell count, lymphocyte count, monocyte count, proportion of neutrophils and lymphocytes compared to the disease control group", "setting": "[2]; filgrastim 50 μg/kg subcutaneously, p<0.05", "value": "increase"},
      {"measurement": "weight of the thymus compared to the disease control group", "setting": "[2]; filgrastim 50 μg/kg, end of the experiment", "value": "remained unchanged"}
    ]}
  ]
}
